Measured values from paper PMC5740878.

Molecular target: UHRF1-mCherry (UniProt Q96T88)
Assay: FRET or BRET; FLIM-FRET in fixed HeLa cells 24 h after co-transfection of TIP60-eGFP WT/mutants (donor) and UHRF1-mCherry (acceptor) 1:1; two-photon excitation at 930 nm; E = 1-(τDA/τD); one-component and two-component analysis of decays

Sequence of TIP60∆CRD-eGFP (Q92993 whole entry): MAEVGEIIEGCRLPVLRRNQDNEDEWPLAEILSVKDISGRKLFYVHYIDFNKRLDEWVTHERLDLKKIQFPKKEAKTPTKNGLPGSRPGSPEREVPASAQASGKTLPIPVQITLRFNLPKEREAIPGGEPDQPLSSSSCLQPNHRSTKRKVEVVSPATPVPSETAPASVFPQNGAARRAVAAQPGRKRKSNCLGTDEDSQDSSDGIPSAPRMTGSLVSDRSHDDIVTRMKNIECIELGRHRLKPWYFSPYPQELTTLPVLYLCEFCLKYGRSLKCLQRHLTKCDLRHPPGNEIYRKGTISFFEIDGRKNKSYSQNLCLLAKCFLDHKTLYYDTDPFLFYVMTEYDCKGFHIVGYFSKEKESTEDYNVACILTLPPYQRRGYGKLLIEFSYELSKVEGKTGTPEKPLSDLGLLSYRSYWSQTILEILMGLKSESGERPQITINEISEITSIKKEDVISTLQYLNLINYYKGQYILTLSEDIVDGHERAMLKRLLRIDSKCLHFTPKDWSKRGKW
Sequence of UHRF1-mCherry (Q96T88 whole entry): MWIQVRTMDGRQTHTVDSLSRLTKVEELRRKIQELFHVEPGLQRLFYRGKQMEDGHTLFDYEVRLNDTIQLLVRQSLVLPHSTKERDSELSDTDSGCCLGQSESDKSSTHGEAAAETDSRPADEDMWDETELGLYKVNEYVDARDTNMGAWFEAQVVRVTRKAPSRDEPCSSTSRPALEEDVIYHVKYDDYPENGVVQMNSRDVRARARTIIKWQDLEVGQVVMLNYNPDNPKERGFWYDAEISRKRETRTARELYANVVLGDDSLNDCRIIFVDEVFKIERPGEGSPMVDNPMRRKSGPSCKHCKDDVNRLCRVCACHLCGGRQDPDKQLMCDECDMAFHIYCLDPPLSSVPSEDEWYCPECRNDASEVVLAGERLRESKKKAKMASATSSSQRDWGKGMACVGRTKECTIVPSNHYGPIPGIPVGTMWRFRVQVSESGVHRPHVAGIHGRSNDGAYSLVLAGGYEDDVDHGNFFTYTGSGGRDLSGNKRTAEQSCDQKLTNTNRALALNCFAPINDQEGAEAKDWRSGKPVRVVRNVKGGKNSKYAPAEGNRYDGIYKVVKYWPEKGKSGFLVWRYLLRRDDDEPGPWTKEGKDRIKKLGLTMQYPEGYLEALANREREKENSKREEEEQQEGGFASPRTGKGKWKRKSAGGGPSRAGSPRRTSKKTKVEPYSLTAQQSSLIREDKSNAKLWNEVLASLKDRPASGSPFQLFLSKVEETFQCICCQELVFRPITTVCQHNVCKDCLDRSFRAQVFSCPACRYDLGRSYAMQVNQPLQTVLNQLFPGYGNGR

**Q.** For “TIP60∆CRD-eGFP (from UniProt Q92993 1-513) (natural protein)”, which average FRET is on record?
**A.** Its average FRET is 12.2%.

**Q.** And the average FRET of the short lifetime component, two-component model?
**A.** The average FRET of the short lifetime component, two-component model was 43%.

**Q.** What about the mean short lifetime component (τ1), two-component model of the same substance?
**A.** Its mean short lifetime component (τ1), two-component model is 1.4 ns.

**Q.** What about the population (α1) of the interacting short lifetime component of the same substance?
**A.** The population (α1) of the interacting short lifetime component was 19%.
